Laboratory results: article PMC11320721
pKd: −log10 of the molar value.

Columns and labels:
[1] = target: PZP domain of JADE1 (JADE1PZP), wild type (human) (UniProt Q6IE81); experiment: other fluorescence titration
[2] = target: Nucleosome core particle with 207 bp DNA (NCP207) (human) (UniProt P04908); experiment: fluorescence polarisation
[3] = target: Nucleosome core particle with 147 bp 601 DNA (NCP147) (human) (UniProt P04908); experiment: fluorescence polarisation

PZP domain of JADE1 (JADE1PZP), wild type (human), sequence (Q6IE81 201-373): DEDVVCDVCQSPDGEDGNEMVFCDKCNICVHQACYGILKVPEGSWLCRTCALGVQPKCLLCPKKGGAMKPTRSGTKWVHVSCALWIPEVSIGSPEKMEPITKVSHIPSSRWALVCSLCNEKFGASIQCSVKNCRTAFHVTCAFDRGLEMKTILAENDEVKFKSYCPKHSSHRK
PZP domain of JADE1 (JADE1PZP), wild type, sequence (Q6IE81 201-373): as above

H3_(1–31) peptide (residues 1–31 of H3) (from UniProt P68431 2-32)
Kd of the first site (two-site binding model) [1]: 0.3 µM | Kd of the second site (two-site binding model) [1]: 25 µM

H3_(15–34) peptide (residues 15–34 of H3) (from UniProt P68431 16-35)
pKd [1]: 4.20

K331A/R334A/K367A (KRK) mutant of JADE1PZP (from UniProt Q6IE81 201-373) (domain or fragment)
fold decrease in binding against wild type JADE1PZP [2]: 55 fold

PZP domain of JADE1 (JADE1PZP), wild type (from UniProt Q6IE81 201-373) (domain or fragment)
S1/2 [2]: 0.5 µM | S1/2 [3]: 2.8 µM
